Key:
Assay type in all cases: cell-based, human
[1] = test system: wild-type and variant SNAP-GIPR; assay: Constitutive and agonist-mediated internalization, reversible SNAP-tag labelling, INS-1 cells; parameters: key to Internalisation, GIP-only / Internalisation, Vehicle / Internalisation, +GIP: % internalization: residual fluorescence after Mesna vs pre-Mesna; conditions: Mean
In short: (§1)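 Surface SNAP-GIPR signal removable by Mesna was tracked by imaging before and 10 min after treatment in pH 8.6 TNE buffer. Internalization is the Mesna-resistant share of specific fluorescence.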

[2] = test system: wild-type and variant SNAP-GIPR; assay: Constitutive and agonist-mediated internalization, reversible SNAP-tag labelling, AD293 cells; parameters: key to Internalisation, Vehicle / Internalisation, +GIP / Internalisation, GIP-only: % internalization: residual fluorescence after Mesna vs pre-Mesna; Surface expression: unit not given here; conditions: Mean
In short: as §1

[3] = test system: wild-type and variant SNAP-GIPR; assay: Surface SNAP-GIPR expression (SNAP-tag labelling) in AD293 cells; conditions: for AD293 Surface: Fig S3E, mean; for Surface SNAP-GIPR expression: sheet Fig 1C;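 on all read-outs here: scaled to the experimental average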
In short: (§2)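 Surface GIPR is quantified from wide-field images after labelling intact transfected cells with a membrane-impermeant SNAP probe at 500 nM for 10 min at room temperature. Specific signal, corrected for nontransfected cells, is normalized to the experiment-wide average or to wild-type.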

[4] = test system: wild-type and variant SNAP-GIPR; assay: Single-concentration GIP cAMP response by HTRF in AD293 cells; conditions: Fig S3F, HTRF, mean;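 further: ratio to experiment-wide average response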
Protocol: (§3) All variants were tested in parallel on each occasion to control for transfection efficiency differences between experiments.

[5] = test system: wild-type and variant SNAP-GIPR; assay: cADDis cAMP imaging in AD293 cells, ensemble, expression-matched and per decile; conditions: Fig S3F, cADDis, mean
In short: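 Per-cell cAMP from cADDis intensity over time, with cells excluded by IBMX/FSK response criteria. Expression matching used wild-type surface-SNAP deciles, top and bottom trimmed, mean of decile means. Ensemble values ignore deciles. Wide-field imaging at 37 °C in KRBH with 6 mM glucose, 0.1% BSA, 24 h post-transfection in AD293.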

[6] = test system: wild-type and variant SNAP-GIPR; assay: Surface SNAP-GIPR expression (SNAP-tag labelling) in INS-1 cells; conditions: Fig 4G; Mean
In short: as §2

[7] = test system: wild-type and variant SNAP-GIPR; assay: Single-concentration GIP cAMP response by HTRF in INS-1 cells; conditions: Fig S3E, mean
Protocol: as §3

B1: R183Q (protein, UniProt P48546 22-466, looked up, variant R183Q)
Gastric inhibitory …: RAETGSKGQTAGELYQRWERYRRECQETLAAAEPPSGLACNGSFDMYVCWDYAAPNATARASCPWYLPWHHHVAAGFVLRQCGSDGQWGLWRDHTQCENPEKNEAFLDQRLILERLQVMYTVGYSLSLATLLLALLILSLFRRLHCTRNYIHINLFTSFMLQAAAILSRDRLLPRPGPYLGDQALALWNQALAACRTAQIVTQYCVGANYTWLLVEGVYLHSLLVLVGGSEEGHFRYYLLLGWGAPALFVIPWVIVRYLYENTQCWERNEVKAIWWIIRTPILMTILINFLIFIRILGILLSKLRTRQMRCRDYRLRLARSTLTLVPLLGVHEVVFAPVTEEQARGALRFAKLGFEIFLSSFQGFLVSVLYCFINKEVQSEIRRGWHHCRLRRSLGEEQRQLPERAFRALPSGSGPGEVPTSRGLSSGTLPGPGNEASRELESYC
[1]; Fig 4G, GIP 100 nM
  +GIP internalisation (100 nM): 0.3116
  GIP-specific internalisation (100 nM): 0.02961
[1]; Fig 4G
  Constitutive internalisation (100 nM): 0.282
[1]; Fig S4C, INS-1
  Internalisation, +GIP: 37.4683
  Internalisation, GIP-only: 3.708
  Internalisation, Vehicle: 33.76
[2]; Fig 4E, GIP 100 nM
  +GIP internalisation (100 nM): 0.3247
  GIP-specific internalisation (100 nM): 0.02672
[2]; Fig 4E
  Constitutive internalisation (100 nM): 0.298
  Surface expression: 0.6535
[2]; Fig S4C, AD293
  Internalisation, +GIP: 49.3267
  Internalisation, GIP-only: 3.992
  Internalisation, Vehicle: 45.335
[3]; column repeated, paired with cAMP 100 nM
  AD293 Surface: 0.6425
[3]; paired with cAMP 100 pM
  AD293 Surface: 0.6425
[3]; replicate 1
  Surface SNAP-GIPR expression: 0.7543
[3]; replicate 2
  Surface SNAP-GIPR expression: 1.106
[3]; replicate 3
  Surface SNAP-GIPR expression: 0.9536
[3]; replicate 4
  Surface SNAP-GIPR expression: 0.232
[3]; replicate 5
  Surface SNAP-GIPR expression: 0.7423
[3]; replicate 6
  Surface SNAP-GIPR expression: 0.6069
[3]; replicate 7
  Surface SNAP-GIPR expression: 1.15
[3]; replicate 8
  Surface SNAP-GIPR expression: 0.9044
[3]; replicate 9
  Surface SNAP-GIPR expression: 0.5747
[3]; replicate 10
  Surface SNAP-GIPR expression: 0.6709
[3]; replicate 11
  Surface SNAP-GIPR expression: 0.6959
[3]; replicate 12
  Surface SNAP-GIPR expression: 0.6048
[3]; replicate 13
  Surface SNAP-GIPR expression: 0.2083
[3]; replicate 14
  Surface SNAP-GIPR expression: 0.4922
[3]; replicate 15
  Surface SNAP-GIPR expression: 0.6065
[3]; replicate 16
  Surface SNAP-GIPR expression: 0.716
[3]; replicate 17
  Surface SNAP-GIPR expression: 0.7375
[3]; replicate 18
  Surface SNAP-GIPR expression: 0.5932
[3]; replicate 19
  Surface SNAP-GIPR expression: 0.8135
[3]; replicate 20
  Surface SNAP-GIPR expression: 0.672
[3]; replicate 21
  Surface SNAP-GIPR expression: 0.7253
[3]; replicate 22
  Surface SNAP-GIPR expression: 0.7101
[3]; replicate 23
  Surface SNAP-GIPR expression: 0.6734
[3]; replicate 24
  Surface SNAP-GIPR expression: 0.6371
[3]; replicate 25
  Surface SNAP-GIPR expression: 0.6035
[3]; replicate 26
  Surface SNAP-GIPR expression: 0.6412
[3]; replicate 27
  Surface SNAP-GIPR expression: 0.6638
[3]; replicate 28
  Surface SNAP-GIPR expression: 0.5579
[3]; replicate 29
  Surface SNAP-GIPR expression: 0.6957
[3]; replicate 30
  Surface SNAP-GIPR expression: 0.2984
[3]; replicate 31
  Surface SNAP-GIPR expression: 0.1821
[3]; replicate 32
  Surface SNAP-GIPR expression: 0.3718
[3]; replicate 33
  Surface SNAP-GIPR expression: 0.3193
[3]; replicate 34
  Surface SNAP-GIPR expression: 0.6173
[3]; replicate 35
  Surface SNAP-GIPR expression: 0.7865
[3]; replicate 36
  Surface SNAP-GIPR expression: 0.6007
[3]; replicate 37
  Surface SNAP-GIPR expression: 0.5904
[3]; replicate 38
  Surface SNAP-GIPR expression: 0.7906
[3]; replicate 39
  Surface SNAP-GIPR expression: 0.7153
[3]; replicate 40
  Surface SNAP-GIPR expression: 0.6916
[3]; replicate 41
  Surface SNAP-GIPR expression: 0.6376
[4]; AD293, 100 pM
  AD293 100 pM HTRF: 0.04104
[4]; AD293, 100 nM
  AD293 100 nM HTRF: 0.2411
[5]; AD293, 100 pM
  AD293 100 pM cADDis: -1.0843
[5]; AD293, 100 nM
  AD293 100 nM cADDis: 18.64
[6]
  Surface expression: 0.8445
[7]
  INS-1 cAMP (100 nM): 0.04521
